The target in this series is T1, PepTag peptide C1.
T1 chain: PLSRTLSVAAK

B1: recombinant DESC1 polypeptide expressed as a fusion protein with an amino-terminal His tag (pcDNA4/HisMax) (protein)
chain: MYRPDVVRARKRVCWEPWVIGLVIFISLIVLAVCIGLTVHYVRYNQKKTYNYYSTLSFTTDKLYAEFGREASNNFTEMSQRLESMVKNAFYKSPLREEFVKSQVIKFSQQKHGVLAHMLLICRFHSTEDPETVDKIVQLVLHEKLQDAVGPPKVDPHSVKIKKINKTETDSYLNHCCGTRRSKTLGQSLRIVGGTEVEEGEWPWQASLQWDGSHRCGATLINATWLVSAAHCFTTYKNPARWTASFGVTIKPSKMKRGLRRIIVHEKYKHPSHDYDISLAELSSPVPYTNAVHRVCLPDASYEFQPGDVMFVTGFGALKNDGYSQNHLRQAQVTLIDATTCNEPQAYNDAITPRMLCAGSLEGKTDACQGDSGGPLVSSDARDIWYLAGIVSWGDECAKPNKPGVYTRVTALRDWITSKTGI
As for B1, the “PepTag Protease Assay: proteolysis of dye-linked peptide, agarose gel electrophoresis” value is given as “demonstrate proteolytic cleavage of C1 peptide by fractions containing DESC1 polypeptide eluted from the ProBond resin”.
